Measurements: PMC8854993, “Acetylation at Lysine 86 of Escherichia coli HUβ Modulates the DNA-Binding Capability of the Protein” (Frontiers in Microbiology, 2021)

T1: HUβ (Escherichia coli BL21(DE3), UniProt P0ACF4 1-90)
T1 sequence: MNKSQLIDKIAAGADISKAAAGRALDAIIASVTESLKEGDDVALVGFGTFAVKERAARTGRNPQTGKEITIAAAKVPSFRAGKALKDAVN

B1: Escherichia coli HUα (natural protein, E. coli, UniProt P0ACF0 1-90, looked up)
chain: MNKTQLIDVIAEKAELSKTQAKAALESTLAAITESLKEGDAVQLVGFGTFKVNHRAERTGRNPQTGKEIKIAAANVPAFVSGKALKDAVK
notes: hupA amplified from chromosomal DNA of E. coli BL21(DE3) with primers from the start codon to the last codon, followed by His6; No tag cleavage is described; the printed mass (10,357.5 Da observed, 10,357.8 Da calculated) appears to fit the whole protein with His6; also called HUα2 (homodimer); hupA-His6; source: E. coli BL21-AI, purified (Ni-NTA, cation exchange RESOURCE S)

What was measured:
[1] = target: the molecule itself; assay: SEC; analytical SEC, Agilent Bio SEC-3 column in PBS (10 mM NaPO pH 7.4, 154 mM NaCl), 0.6 mg/mL protein, 20 uL injected, 0.35 mL/min, detection at 214 nm, molecular weight estimated from a standard curve; heterodimers made by mixing purified homodimers 1:1 on ice for 5 min
[2] = target: B1; assay: as above; conditions: both partners purified
[3] = target: T1, HUβ; assay: EMSA; homodimer; 30 mM Tris pH 7.5, 100 mM NaCl, 0.02% Tween20, 0.5 mg/ml BSA; 30-bp DNA 1 µM, 18°C 10 min, 10% PAGE in TBE; long DNA 250 ng in 15 µL, 37°C 1 h, 0.5% agarose in; conditions: protein: recombinant; tags: C-terminal 6xHis; chain copies: 2; three strands; 2-nt gap in bottom strand between S16 and S17; blunt outer ends

binding result [2]	Binder	stoichiometry N [1]	binding result [3]
binds	Escherichia coli HUβ (natural protein, E. coli, UniProt P0ACF4 1-90, looked up, hupB amplified from chromosomal DNA of E. coli BL21(DE3) with primers from the start codon to the last codon, followed by an XhoI site and His6; The reverse primer carries CTCGAG (XhoI) between hupB and the His codons, so Leu-Glu probably stands before His6; theoretical mass printed 10,290.7 Da; No tag cleavage is described; also called HUβ2 (homodimer); hupB-His6; source: E. coli BL21-AI, …) MNKSQLIDKIAAGADISKAAAGRALDAIIASVTESLKEGDDVALVGFGTFAVKERAARTGRNPQTGKEITIAAAKVPSFRAGKALKDAVN	2	–
binds	Escherichia coli HUβ acetylated at Lys67 (natural protein, E. coli, UniProt P0ACF4 1-90, looked up, acetyl-lysine at 67, from pBAD hupB(K67TAG)-His6, amber codon at Lys67 read as acetyl lysine; Same construct as m2 but with acetyl-lysine at 67; theoretical mass printed 10,332.7 Da; also called HUβ(K67ac); HUβ(K67ac)2 (homodimer)) MNKSQLIDKIAAGADISKAAAGRALDAIIASVTESLKEGDDVALVGFGTFAVKERAARTGRNPQTGKEITIAAAKVPSFRAGKALKDAVN	2	–
binds	Escherichia coli HUβ acetylated at Lys86 (natural protein, E. coli, UniProt P0ACF4 1-90, looked up, acetyl-lysine at 86, from pBAD hupB(K86TAG)-His6, amber codon at Lys86 read as acetyl lysine; Same construct as m2 but with acetyl-lysine at 86; theoretical mass printed 10,332.7 Da; also called HUβ(K86ac); HUβ(K86ac)2 (homodimer)) MNKSQLIDKIAAGADISKAAAGRALDAIIASVTESLKEGDDVALVGFGTFAVKERAARTGRNPQTGKEITIAAAKVPSFRAGKALKDAVN	2	–
–	B1	2	–
–	30-bp duplex with 2-nt gap (dsDNA, 2-nt gap in bottom strand) DNA 1: CCAACTTCCCTAACCCAGCTGCGATCCGTA DNA 2: TACGGATCGCAGC DNA 3: GGTTAGGGAAGTTGG	–	binds
